{"source": "patent US10682427B2", "about": "“Intra-operative imaging” (BRACCO IMAGING S.P.A., priority 2014, dated 2020)", "key": {"[1]": {"assay": "Normalized excitation and emission spectra", "type": "physicochemical", "excerpt": "The normalized excitation and emission spectra of the NIR agent in PBS (ex/em: 674/694; Stokes Shift: 20 nm) and in SERONORM (human-based control serum) (694/704, Stokes Shift 10 nm) are shown in FIG. 2. As shown in the figure, the interaction of the DA364 contrast agent with serum albumin promotes the shift of the emission maximum from 694 nm to 704 nm (in PBS and in SERONORM (human-based control serum) respectively) and also the reduction of the Stokes shift."}, "[2]": {"assay": "Plasma kinetic after single intravenous administration (HPLC with fluorimetric detector)", "type": "in vivo, CD-1(ICR)BR mice", "details": "mice; for plasma concentration (mean from a triplicate result): LOD=0.0012 nmol/mL; for clearance: read-out: total plasma clearance; for Vd: read-out: volume distribution at steady state (Vdss)", "method": "The plasma kinetic of the NIRF probe DA364 was evaluated after a single intravenous administration in CD-1(ICR)BR mice.\nThe fluorescent probe is administered at dose of 0.4 μmol/kg, corresponding to about 10 times the effective dose used in imaging studies (1 nmol/mouse, considering an average mouse body weight of 25 g). Animals were sacrificed at different time points up to and including 14 days after treatment and blood samples were collected for the determination of DA364 content, performed by using an HPLC method coupled with a fluorimetric detector.\nThe NIR agent DA364, pre-warmed at room temperature, was intravenously injected at a dose of 0.4 μmol/kg, via tail vein, at an injection rate of 1 mL/min with a Harvard infusion pump. The administered dose corresponds to about 10 times the effective dose used in imaging studies. The intravenous administration route was chosen as possible route of exposure for humans.\nAnimals (three for each time point) were sacrificed before and 5 min, 10 min, 20 min, 30 min, 60 min, 4 h, 24 h, 48 h, 7 days and 14 days after DA364.\nThe day of sacrifice animals were anesthetized with sevoflurane, at an expiratory concentration of 3-4% in induction and 2-3% in maintenance and then sacrificed by decapitation. Blood for HPLC determinations (at least 0.5 mL) was collected using heparinized tubes. Plasma obtained after centrifugation (2100 g for 10 min) was stored at −80° C. until the day of analysis.\nDetermination of the amount of DA364 in plasma samples was carried out by an HPLC method coupled with a fluorimetric detector previously prompted.\nPlasma samples (S) were prepared by adding 100 μL of acetate buffer and 100 μL of a Methanol Acetonitrile solution (50:50) to 100 μL of diluted plasma. Tubes will be stirred and subsequently centrifuged at 4° C. for 10 minutes at 13000 g. Ten microliters of the clear supernatant will be injected into the HPLC equipment. Appropriate dilution was performed in case of plasma samples too concentrated.\nThe HPLC determination was performed by interpolating calibration curves of DA364 in plasma and organs, prepared by assaying calibration standard samples (CAL) (6 concentrations, 3 replicates for each concentration) of the fluorescent agent DA364.\nBlood for HPLC determinations (at least 0.5 mL) was collected in heparinized tubes. Plasma concentration of DA364 was measured by an HPLC method coupled with a fluorimetric detector.\nTo evaluate the systemic exposure, Cmax and the area under the plasma DA364 concentration curve as a function of time (AUC) were calculated by non-parametric methods using the computer program WIN-NONLIN 6.3 (WinNonlin 6.3 SCI Software, Lexington, Ky., USA). For the tested dose, a non-compartmental analysis was performed using the average plasma concentrations from 3 animals for each time point. For Cmax and the corresponding tmax the observed values were reported. Area under the plasma concentration-time curve to the last observable plasma concentration (AUC(0 to t)) was calculated from observed data using the logarithmic trapezoidal method. […]."}, "[3]": {"assay": "Fluorescence quantum yield with integrating sphere", "type": "physicochemical", "details": "excitation 625 nm, 15 min at RT", "method": "Fluorescence quantum yields (0%) measurements were performed on FluoroLog-31IHR-320 (HORIBA-JobinYvon) with integrating sphere accessory.\nThe measurements were carried out using an excitation wavelength of 625 nm and using a 450W Xenon Light Source. Detection was performed on TBX-04 detector from 645 to 850 nm (excitation and emission slit were 1.8 nm).\nThe fluorescence quantum yield of DA364 solution was measured both in human serum SERONORM (human-based control serum), NycomedPhama, batch 1109514) and in Phosphate Buffer Saline (PBS).\nSolutions of the NIR agent were prepared in PBS and in human serum with absorbance lower than 0.1. Fluorescence (0%) measurements were carried out after incubation of the NIR agent at Room Temperature (RT) for 15 min."}, "[4]": {"target": "Human Serum Albumin (HSA) (Homo sapiens, UniProt P02768)", "sequence (P02768 25-609)": "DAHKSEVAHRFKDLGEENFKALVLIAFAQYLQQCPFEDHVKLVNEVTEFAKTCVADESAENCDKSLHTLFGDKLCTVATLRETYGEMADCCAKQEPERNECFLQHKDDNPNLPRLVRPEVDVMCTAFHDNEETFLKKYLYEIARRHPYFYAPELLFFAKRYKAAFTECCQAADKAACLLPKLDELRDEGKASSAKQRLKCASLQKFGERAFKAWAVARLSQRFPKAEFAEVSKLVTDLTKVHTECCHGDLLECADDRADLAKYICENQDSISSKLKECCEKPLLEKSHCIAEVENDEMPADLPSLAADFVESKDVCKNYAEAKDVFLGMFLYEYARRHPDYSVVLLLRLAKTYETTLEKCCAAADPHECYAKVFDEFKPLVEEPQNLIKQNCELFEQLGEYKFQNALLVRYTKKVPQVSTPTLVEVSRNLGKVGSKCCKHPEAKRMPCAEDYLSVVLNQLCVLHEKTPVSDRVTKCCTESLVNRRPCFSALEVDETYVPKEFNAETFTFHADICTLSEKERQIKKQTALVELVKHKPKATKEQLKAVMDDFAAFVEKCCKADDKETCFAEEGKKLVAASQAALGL", "assay": "In vitro binding assay towards human serum albumin (absorbance at 689 nm)", "description": "Final solutions, containing 0.99 mM of the NIR agent and different amount of HSA, were incubated 1 h at room temperature before measurements. The absorbance of each solution was measured against a reference solution of HSA at the same concentration."}, "[5]": {"assay": "Determination of the molar extinction coefficient (UV-VIS absorbance, linear regression)", "type": "physicochemical", "details": "in PBS", "method": "Two standard stock solutions containing the NIR agent in PBS at 1000 μM (sol I: 1.27 mg, 0.884 mL) and 1250 μM (sol II: 7.03 mg, 3.915 mL) were prepared. Diluted standard solutions were then prepared as reported in Table A by diluting the stock solutions in an appropriate volumetric flask using PBS. The absorbance of each standard diluted solution was measured without any further dilution.\nThe absorbance of each diluted standard solutions was measured and the molar extinction coefficient of DA364 was calculated from the slope of the linear regression reported in FIG. 1. The measured extinction coefficient in this condition was 208500 M^−1·cm^−1 (corresponding to 83% of the theoretical value reported for Cy5.5 dye: 250000 M^−1·cm^−1)."}, "[6]": {"details": "SERONORM (human-based control serum)"}, "[7]": {"details": "CD-1(ICR)BR, mouse, plasma, iv, 0.4 umol/kg, 0.4 μmol/kg i.v."}, "[8]": {"details": "CD-1(ICR)BR, mouse, plasma, iv, 0.4 umol/kg, 0.4 μmol/kg i.v., per animal"}}, "note": "Several values for one entry are separate records, joined by “and”; a condition that tells them apart may be missing. Equal values may be shown once. Read-outs that look alike come from different tables or passages of the source.", "data": [{"smiles": "CC[N+]1=C(/C=C/C=C/C=C2/N(CCCCCC(=O)NC[C@@H]3C[C@@H]4CC[C@H]5C(=O)N[C@@H](CCCNC(=N)N)C(=O)NCC(=O)N[C@@H](CC(=O)O)C(=O)N[C@H]3C(=O)N45)c3ccc4c(S(=O)(=O)O)cc(S(=O)(=O)O)cc4c3C2(C)C)C(C)(C)c2c1ccc1c(S(=O)(=O)[O-])cc(S(=O)(=O)O)cc21", "note": "[DA364]", "values": [{"measurement": "Stokes Shift", "setting": "[1]; PBS", "value": 20, "unit": "nm"}, {"measurement": "emission maximum (em)", "setting": "[1]; PBS", "value": 694, "unit": "nm"}, {"measurement": "excitation maximum (ex)", "setting": "[1]; PBS", "value": 674, "unit": "nm"}, {"measurement": "Stokes Shift", "setting": "[1]; [6]", "value": 10, "unit": "nm"}, {"measurement": "emission maximum (em)", "setting": "[1]; [6]", "value": 704, "unit": "nm"}, {"measurement": "excitation maximum (ex)", "setting": "[1]; [6]", "value": 694, "unit": "nm"}, {"measurement": "plasma concentration (mean from a triplicate result)", "setting": "[2]; 1440 min after 0.4 μmol/kg i.v.", "value": "<LOD"}, {"measurement": "plasma concentration (mean from a triplicate result)", "setting": "[2]; 2880 min after 0.4 μmol/kg i.v.", "value": "<LOD"}, {"measurement": "plasma concentration (mean from a triplicate result)", "setting": "[2]; 10080 min after 0.4 μmol/kg i.v.", "value": "<LOD"}, {"measurement": "plasma concentration (mean from a triplicate result)", "setting": "[2]; 20160 min after 0.4 μmol/kg i.v.", "value": "<LOD"}, {"measurement": "AUC(0-inf)", "setting": "[2]; [7]", "value": 1.28, "unit": "µM·h"}, {"measurement": "Cmax", "setting": "[2]; [7]", "value": 1630, "unit": "nM"}, {"measurement": "Tmax", "setting": "[2]; [7]", "value": 5, "unit": "min"}, {"measurement": "clearance", "setting": "[2]; [8]", "value": 0.15, "unit": "mL/min"}, {"measurement": "Vd", "setting": "[2]; [8]", "value": 0.01, "unit": "L"}, {"measurement": "half-life", "setting": "[2]; CD-1(ICR)BR, mouse, plasma, iv, 0.4 umol/kg, 0.4 μmol/kg i.v., read-out: half life associated with the terminal elimination phase", "value": 64, "unit": "min"}, {"measurement": "clearance", "setting": "[2]; [7]", "value": 5, "unit": "mL/min/kg"}, {"measurement": "Vd", "setting": "[2]; [7]", "value": 0.329, "unit": "L/kg"}, {"measurement": "level at time molar at 5 min", "setting": "[2]; CD-1(ICR)BR, mouse, plasma, iv, 0.4 umol/kg, 5 min after 0.4 μmol/kg i.v., read-out: plasma concentration (mean from a triplicate result)", "value": 1630, "unit": "nM"}, {"measurement": "level at time molar at 10 min", "setting": "[2]; CD-1(ICR)BR, mouse, plasma, iv, 0.4 umol/kg, 10 min after 0.4 μmol/kg i.v., read-out: plasma concentration (mean from a triplicate result)", "value": 1100, "unit": "nM"}, {"measurement": "level at time molar at 20 min", "setting": "[2]; CD-1(ICR)BR, mouse, plasma, iv, 0.4 umol/kg, 20 min after 0.4 μmol/kg i.v., read-out: plasma concentration (mean from a triplicate result)", "value": 612, "unit": "nM"}, {"measurement": "level at time molar at 0.5 h", "setting": "[2]; CD-1(ICR)BR, mouse, plasma, iv, 0.4 umol/kg, 30 min after 0.4 μmol/kg i.v., read-out: plasma concentration (mean from a triplicate result)", "value": 518, "unit": "nM"}, {"measurement": "level at time molar at 1 h", "setting": "[2]; CD-1(ICR)BR, mouse, plasma, iv, 0.4 umol/kg, 60 min after 0.4 μmol/kg i.v., read-out: plasma concentration (mean from a triplicate result)", "value": 278, "unit": "nM"}, {"measurement": "level at time molar at 4 h", "setting": "[2]; CD-1(ICR)BR, mouse, plasma, iv, 0.4 umol/kg, 240 min after 0.4 μmol/kg i.v., read-out: plasma concentration (mean from a triplicate result)", "value": 51, "unit": "nM"}, {"measurement": "Φ% (fluorescence quantum yield)", "setting": "[3]; PBS", "value": "36.5% and 36.5 (SD 2.37) %"}, {"measurement": "Φ% (fluorescence quantum yield)", "setting": "[3]; [6]", "value": "57.5% and 57.5 (SD 1.26) %"}, {"measurement": "Kd", "setting": "[4]", "value": 34.9, "unit": "µM"}, {"measurement": "association constant with HSA (ka)", "setting": "[4]; PBS, 1 h at room temperature", "value": "28670 ± 1140", "unit": "M⁻¹"}, {"measurement": "extinction coefficient as percent of the theoretical value reported for Cy5.5 dye", "setting": "[5]", "value": 83, "unit": "%"}, {"measurement": "molar extinction coefficient", "setting": "[5]", "value": 208500, "unit": "M⁻¹ cm⁻¹"}]}]}
